We go through 24 variants from IntAct's records for PubMed 16951355.

B1: ICOS ligand (Homo sapiens), O75144 (parent)
chain: MRLGSPGLLFLLFSSLRADTQEKEVRAMVGSDVELSCACPEGSRFDLNDVYVYWQTSESKTVVTYHIPQNSSLENVDSRYRNRALMSPAGMLRGDFSLRLFNVTPQDEQKFHCLVLSQSLGFQEVLSVEVTLHVAANFSVPVVSAPHSPSQDELTFTCTSINGYPRPNVYWINKTDNSLLDQALQNDTVFLNMRGLYDVVSVLRIARTPSVNIGCCIENVLLQQNLTVGSQTGNDIGERDKITENPVSTGEKNAATWSILAVLCLLVVVAVAIGWVCRDRCLQHSYAGAWAVSPETELTGHV

Variants of B1 are the subject of this assay. As to conditions: with icos_human ICOS.
With N70Q, the “effect of a mutation on the interaction” value was “with no effect”.
For G121A the value was “with no effect”; for N137Q, “with no effect”; for L196A, “with no effect”.
Under L98A stands “with no effect”; under P141A, “with no effect”; under V62A, “decreasing interaction strength”.
Under G195A stands “with no effect”.
With T64A, the “effect of a mutation on the interaction” value is listed as “with no effect”.
For V76A the value was “decreasing interaction strength”; for F138A, “with no effect”.
For N186Q, the “effect of a mutation on the interaction” value was “with no effect”.
With H66A, the “effect of a mutation on the interaction” value is given as “decreasing interaction strength”.
For N102Q the value was “decreasing interaction strength”; for L114A, “decreasing interaction strength”; for S87A, “with no effect”.
For Y80A the value was “disrupting interaction strength”.
For D77A, the “effect of a mutation on the interaction” value was “with no effect”.
With N225Q, the “effect of a mutation on the interaction” value is “with no effect”.
For E124A the value was “decreasing interaction strength”.
For L120A the value was “decreasing interaction strength”.
For V143A the value was “with no effect”; for F122A, “disrupting interaction strength”; for Q123A, “with no effect”.
